Laboratory results: patent US20120121587A1 (Chugai, published 2012)
Substitutions are numbered along the chain they refer to.

T1: Human recombinant AXL-FND1 (GST-FND1), from pET-41b(+) (human, UniProt P30530 225-331)
T1 construct: Expressed in E. coli, purified on Glutathione Sepharose; analyte in all Biacore measurements; GST put first by the usual layout of pET-41; not shown: GST-tag of vector pET-41b(+) (Novagen)
T1 sequence (looked up): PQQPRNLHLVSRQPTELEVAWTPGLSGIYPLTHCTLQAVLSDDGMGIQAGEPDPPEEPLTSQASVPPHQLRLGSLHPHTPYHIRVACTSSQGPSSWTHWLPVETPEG

B1: H35/L0 (antibody, human IgG1, kappa, V domains shown)
VH: QVTLKESGPVLVKPTETLTLTCTVSGFSLSRFGVDWVRQAPGKGLEWMGVIWGGGSTNYNSALKSRLTISKDNSKSQVVLTMTNMDPVDTATYYCAGEGSKYGAWFAYWGQGTLVTVSS
VL: DVVMTQSPLSLPVTLGQPASISCRSSQNIVHTNGNTYLEWYQQKPGKAPELLIYKVSNRFSGVPDRFSGSGSGTDFTLKISRVEAEDVGVYYCFQGSHIPFTFGQGTKLEIKR
B2: H36/L0 (antibody, human IgG1, kappa)
heavy: not shown
light: DVVMTQSPLSLPVTLGQPASISCRSSQNIVHTNGNTYLEWYQQKPGKAPELLIYKVSNRFSGVPDRFSGSGSGTDFTLKISRVEAEDVGVYYCFQGSHIPFTFGQGTKLEIKRTVAAPSVFIFPPSDEQLKSGTASVVCLLNNFYPREAKVQWKVDNALQSGNSQESVTEQDSKDSTYSLSSTLTLSKADYEKHKVYACEVTHQGLSSPVTKSFNRGEC
B3: H36/L1 (antibody, human IgG1, kappa)
heavy: not shown
light: B2 light with R24Q
B4: H36/L10 (antibody, human IgG1, kappa)
heavy: not shown
light: B2 light with L109V, K112E
B5: H36/L11 (antibody, human IgG1, kappa)
heavy: not shown
light: B2 light with R24Q, L109V, K112E
B6: H36/L27 (antibody, human IgG1, kappa)
heavy: not shown
light: B2 light with Q27R
B7: H36/L28 (antibody, human IgG1, kappa)
heavy: not shown
light: B2 light with E50K
B8: H36/L31 (antibody, human IgG1, kappa)
heavy: not shown
light: B2 light with Q27R, E50K
B9: H36/L34 (antibody, human IgG1, kappa)
heavy: not shown
light: B2 light with Q17R, Q27R, E50K
B10: H36/L35 (antibody, human IgG1, kappa)
heavy: not shown
light: B2 light with Q27R, E50K, Q105R
B11: H36/L37 (antibody, human IgG1, kappa)
heavy: not shown
light: B2 light with Q17R, Q27R, E50K, Q105R
B12: H37/L0 (antibody, human IgG1, kappa, V domains shown)
VH: B1 VH with R31S, S61R
VL: B1 VL
B13: H38/L0 (antibody, human IgG1, kappa, V domains shown)
VH: B1 VH with R31S, S61K
VL: B1 VL
B14: H39/L0 (antibody, human IgG1, kappa)
heavy: not shown
light: B2 light
B15: H40/L0 (antibody, human IgG1, kappa, V domains shown)
VH: B1 VH with R31K, P41R, K43Q, G44R
VL: B1 VL
B16: H41/L0 (antibody, human IgG1, kappa, V domains shown)
VH: B1 VH with P41R, K43Q, G44R
VL: B1 VL
B17: H46/L0 (antibody, human IgG1, kappa)
heavy: not shown
light: B2 light
B18: H46/L1 (antibody, human IgG1, kappa)
heavy: not shown
light: B2 light with R24Q
B19: H46/L10 (antibody, human IgG1, kappa)
heavy: not shown
light: B2 light with L109V, K112E
B20: H46/L11 (antibody, human IgG1, kappa)
heavy: not shown
light: B2 light with R24Q, L109V, K112E
B21: H46/L27 (antibody, human IgG1, kappa)
heavy: not shown
light: B2 light with Q27R
B22: H46/L28 (antibody, human IgG1, kappa)
heavy: not shown
light: B2 light with E50K
B23: H46/L31 (antibody, human IgG1, kappa)
heavy: not shown
light: B2 light with Q27R, E50K
B24: H46/L34 (antibody, human IgG1, kappa)
heavy: not shown
light: B2 light with Q17R, Q27R, E50K
B25: H46/L35 (antibody, human IgG1, kappa)
heavy: not shown
light: B2 light with Q27R, E50K, Q105R
B26: H46/L37 (antibody, human IgG1, kappa)
heavy: not shown
light: B2 light with Q17R, Q27R, E50K, Q105R
B27: H47/L0 (antibody, human IgG1, kappa)
heavy: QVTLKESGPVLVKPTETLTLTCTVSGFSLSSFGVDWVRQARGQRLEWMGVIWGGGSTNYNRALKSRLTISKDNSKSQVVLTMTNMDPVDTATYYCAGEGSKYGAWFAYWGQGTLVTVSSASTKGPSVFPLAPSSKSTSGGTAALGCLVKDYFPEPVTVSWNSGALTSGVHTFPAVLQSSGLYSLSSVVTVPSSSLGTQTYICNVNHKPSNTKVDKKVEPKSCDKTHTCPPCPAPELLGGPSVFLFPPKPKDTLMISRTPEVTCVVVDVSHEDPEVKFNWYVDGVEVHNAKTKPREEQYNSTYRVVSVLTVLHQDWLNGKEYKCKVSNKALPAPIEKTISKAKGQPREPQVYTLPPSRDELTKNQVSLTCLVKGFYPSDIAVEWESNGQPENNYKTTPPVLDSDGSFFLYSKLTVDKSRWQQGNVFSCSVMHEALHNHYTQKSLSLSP
light: B2 light
B28: H47/L1 (antibody, human IgG1, kappa)
heavy: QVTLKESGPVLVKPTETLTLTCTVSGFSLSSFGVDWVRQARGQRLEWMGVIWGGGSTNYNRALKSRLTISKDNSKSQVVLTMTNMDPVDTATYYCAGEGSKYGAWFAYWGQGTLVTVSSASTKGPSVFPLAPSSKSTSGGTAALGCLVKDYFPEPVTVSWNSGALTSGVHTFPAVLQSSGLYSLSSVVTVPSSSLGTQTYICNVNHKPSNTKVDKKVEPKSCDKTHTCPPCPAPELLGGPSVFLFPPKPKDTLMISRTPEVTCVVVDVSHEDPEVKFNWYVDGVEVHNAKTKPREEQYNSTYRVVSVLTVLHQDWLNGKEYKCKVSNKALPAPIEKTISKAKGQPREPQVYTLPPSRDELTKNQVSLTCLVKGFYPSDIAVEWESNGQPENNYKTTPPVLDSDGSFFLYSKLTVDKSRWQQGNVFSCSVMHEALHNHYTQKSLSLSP
light: B2 light with R24Q
B29: H47/L10 (antibody, human IgG1, kappa)
heavy: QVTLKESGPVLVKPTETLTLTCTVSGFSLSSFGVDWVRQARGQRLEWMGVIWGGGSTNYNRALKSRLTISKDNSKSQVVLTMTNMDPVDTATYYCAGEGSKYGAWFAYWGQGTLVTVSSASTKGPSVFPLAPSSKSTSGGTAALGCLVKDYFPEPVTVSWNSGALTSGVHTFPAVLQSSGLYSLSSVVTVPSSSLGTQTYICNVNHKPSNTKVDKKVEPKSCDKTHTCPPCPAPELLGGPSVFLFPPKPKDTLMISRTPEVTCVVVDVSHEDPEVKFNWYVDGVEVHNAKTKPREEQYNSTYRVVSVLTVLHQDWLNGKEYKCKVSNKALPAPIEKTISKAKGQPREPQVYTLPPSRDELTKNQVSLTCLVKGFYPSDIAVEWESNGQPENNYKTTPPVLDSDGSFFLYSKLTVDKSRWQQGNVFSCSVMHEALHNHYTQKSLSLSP
light: B2 light with L109V, K112E
B30: H47/L11 (antibody, human IgG1, kappa)
heavy: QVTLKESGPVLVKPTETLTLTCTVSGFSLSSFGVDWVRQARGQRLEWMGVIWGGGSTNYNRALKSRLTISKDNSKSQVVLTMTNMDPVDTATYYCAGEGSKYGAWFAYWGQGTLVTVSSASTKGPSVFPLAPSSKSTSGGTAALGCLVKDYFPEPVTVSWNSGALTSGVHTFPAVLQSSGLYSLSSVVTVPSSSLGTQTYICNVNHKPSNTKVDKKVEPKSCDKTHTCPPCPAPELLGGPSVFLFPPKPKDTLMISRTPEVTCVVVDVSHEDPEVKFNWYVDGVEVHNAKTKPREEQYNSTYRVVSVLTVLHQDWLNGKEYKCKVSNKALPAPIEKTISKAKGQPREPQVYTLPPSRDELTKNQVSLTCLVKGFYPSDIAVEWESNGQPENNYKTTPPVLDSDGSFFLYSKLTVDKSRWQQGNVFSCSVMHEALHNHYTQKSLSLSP
light: B2 light with R24Q, L109V, K112E
B31: H47/L27 (antibody, human IgG1, kappa)
heavy: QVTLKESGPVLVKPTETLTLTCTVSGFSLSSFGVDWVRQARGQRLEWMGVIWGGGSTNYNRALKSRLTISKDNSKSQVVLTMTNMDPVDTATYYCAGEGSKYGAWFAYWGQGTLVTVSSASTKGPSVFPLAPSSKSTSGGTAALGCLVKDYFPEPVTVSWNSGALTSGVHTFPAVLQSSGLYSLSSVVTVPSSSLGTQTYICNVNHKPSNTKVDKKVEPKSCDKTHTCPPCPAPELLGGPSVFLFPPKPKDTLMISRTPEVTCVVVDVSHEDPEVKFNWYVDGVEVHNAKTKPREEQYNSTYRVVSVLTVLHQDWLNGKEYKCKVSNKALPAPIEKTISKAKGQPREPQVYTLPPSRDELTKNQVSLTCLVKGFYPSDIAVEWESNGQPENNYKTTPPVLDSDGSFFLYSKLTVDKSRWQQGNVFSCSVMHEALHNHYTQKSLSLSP
light: B2 light with Q27R
B32: H47/L28 (antibody, human IgG1, kappa)
heavy: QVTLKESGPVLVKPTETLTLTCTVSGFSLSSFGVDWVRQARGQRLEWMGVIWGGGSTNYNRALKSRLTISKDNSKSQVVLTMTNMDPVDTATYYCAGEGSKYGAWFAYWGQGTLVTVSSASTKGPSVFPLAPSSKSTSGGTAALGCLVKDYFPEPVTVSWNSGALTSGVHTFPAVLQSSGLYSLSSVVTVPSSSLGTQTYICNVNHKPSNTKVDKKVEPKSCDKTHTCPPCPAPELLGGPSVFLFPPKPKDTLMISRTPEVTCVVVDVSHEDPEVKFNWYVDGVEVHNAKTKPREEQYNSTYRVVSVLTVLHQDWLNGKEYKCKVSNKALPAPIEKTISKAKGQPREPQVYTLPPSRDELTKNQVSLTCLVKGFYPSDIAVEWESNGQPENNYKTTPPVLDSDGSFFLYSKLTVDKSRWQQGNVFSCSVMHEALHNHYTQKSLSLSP
light: B2 light with E50K
B33: H47/L31 (antibody, human IgG1, kappa)
heavy: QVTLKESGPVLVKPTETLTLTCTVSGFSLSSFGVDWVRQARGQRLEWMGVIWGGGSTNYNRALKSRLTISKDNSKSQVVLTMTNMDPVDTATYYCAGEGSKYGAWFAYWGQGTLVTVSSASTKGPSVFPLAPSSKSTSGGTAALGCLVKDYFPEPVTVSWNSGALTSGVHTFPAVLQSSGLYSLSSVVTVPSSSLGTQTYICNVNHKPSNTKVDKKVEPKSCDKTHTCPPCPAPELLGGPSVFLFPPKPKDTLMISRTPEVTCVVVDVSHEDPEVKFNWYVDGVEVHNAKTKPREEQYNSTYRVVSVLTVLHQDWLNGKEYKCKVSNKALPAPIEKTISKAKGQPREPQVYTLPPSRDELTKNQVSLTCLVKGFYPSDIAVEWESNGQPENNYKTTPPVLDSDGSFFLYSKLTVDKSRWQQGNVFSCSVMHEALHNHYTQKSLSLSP
light: B2 light with Q27R, E50K
B34: H47/L34 (antibody, human IgG1, kappa)
heavy: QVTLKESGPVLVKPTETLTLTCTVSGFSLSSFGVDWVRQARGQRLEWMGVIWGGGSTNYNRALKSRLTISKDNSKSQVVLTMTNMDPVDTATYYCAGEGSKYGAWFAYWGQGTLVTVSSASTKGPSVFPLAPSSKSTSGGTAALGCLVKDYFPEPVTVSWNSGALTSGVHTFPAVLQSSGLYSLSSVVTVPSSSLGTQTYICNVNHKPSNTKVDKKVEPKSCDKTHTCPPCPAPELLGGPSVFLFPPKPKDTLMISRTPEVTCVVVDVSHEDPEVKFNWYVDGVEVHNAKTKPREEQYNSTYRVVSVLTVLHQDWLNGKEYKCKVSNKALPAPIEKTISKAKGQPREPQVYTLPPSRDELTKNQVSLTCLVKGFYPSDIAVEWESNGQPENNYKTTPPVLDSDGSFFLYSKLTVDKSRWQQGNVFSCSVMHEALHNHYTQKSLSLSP
light: B2 light with Q17R, Q27R, E50K
B35: H47/L35 (antibody, human IgG1, kappa)
heavy: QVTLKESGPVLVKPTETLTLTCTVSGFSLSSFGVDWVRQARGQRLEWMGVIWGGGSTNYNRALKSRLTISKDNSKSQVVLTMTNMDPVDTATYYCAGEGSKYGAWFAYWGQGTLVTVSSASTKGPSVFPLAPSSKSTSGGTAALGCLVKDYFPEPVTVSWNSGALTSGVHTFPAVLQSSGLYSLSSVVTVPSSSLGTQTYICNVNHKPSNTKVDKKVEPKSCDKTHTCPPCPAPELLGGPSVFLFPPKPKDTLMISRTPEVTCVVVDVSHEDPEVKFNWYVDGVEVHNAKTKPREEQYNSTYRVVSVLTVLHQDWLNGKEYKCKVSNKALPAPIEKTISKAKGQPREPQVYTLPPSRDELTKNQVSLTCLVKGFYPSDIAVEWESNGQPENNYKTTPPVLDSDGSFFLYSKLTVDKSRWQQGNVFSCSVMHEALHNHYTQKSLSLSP
light: B2 light with Q27R, E50K, Q105R
B36: H47/L37 (antibody, human IgG1, kappa)
heavy: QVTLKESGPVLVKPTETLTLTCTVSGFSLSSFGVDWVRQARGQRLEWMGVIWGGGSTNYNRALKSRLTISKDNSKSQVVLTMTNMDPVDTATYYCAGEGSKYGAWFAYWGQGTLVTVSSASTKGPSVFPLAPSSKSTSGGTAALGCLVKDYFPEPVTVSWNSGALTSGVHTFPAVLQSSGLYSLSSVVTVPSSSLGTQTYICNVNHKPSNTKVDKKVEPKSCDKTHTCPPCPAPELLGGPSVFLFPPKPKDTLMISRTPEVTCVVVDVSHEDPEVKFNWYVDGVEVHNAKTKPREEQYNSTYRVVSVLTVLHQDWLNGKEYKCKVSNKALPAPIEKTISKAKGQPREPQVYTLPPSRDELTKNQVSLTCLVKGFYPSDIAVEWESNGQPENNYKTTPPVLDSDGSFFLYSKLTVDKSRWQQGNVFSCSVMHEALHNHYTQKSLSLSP
light: B2 light with Q17R, Q27R, E50K, Q105R
B37: H48/L0 (antibody, human IgG1, kappa)
heavy: not shown
light: B2 light
B38: H48/L1 (antibody, human IgG1, kappa)
heavy: not shown
light: B2 light with R24Q
B39: H48/L10 (antibody, human IgG1, kappa)
heavy: not shown
light: B2 light with L109V, K112E
B40: H48/L11 (antibody, human IgG1, kappa)
heavy: not shown
light: B2 light with R24Q, L109V, K112E
B41: H48/L27 (antibody, human IgG1, kappa)
heavy: not shown
light: B2 light with Q27R
B42: H48/L28 (antibody, human IgG1, kappa)
heavy: not shown
light: B2 light with E50K
B43: H48/L31 (antibody, human IgG1, kappa)
heavy: not shown
light: B2 light with Q27R, E50K
B44: H48/L34 (antibody, human IgG1, kappa)
heavy: not shown
light: B2 light with Q17R, Q27R, E50K
B45: H48/L35 (antibody, human IgG1, kappa)
heavy: not shown
light: B2 light with Q27R, E50K, Q105R
B46: H48/L37 (antibody, human IgG1, kappa)
heavy: not shown
light: B2 light with Q17R, Q27R, E50K, Q105R
B47: H49/L0 (antibody, human IgG1, kappa)
heavy: not shown
light: B2 light
B48: H49/L1 (antibody, human IgG1, kappa)
heavy: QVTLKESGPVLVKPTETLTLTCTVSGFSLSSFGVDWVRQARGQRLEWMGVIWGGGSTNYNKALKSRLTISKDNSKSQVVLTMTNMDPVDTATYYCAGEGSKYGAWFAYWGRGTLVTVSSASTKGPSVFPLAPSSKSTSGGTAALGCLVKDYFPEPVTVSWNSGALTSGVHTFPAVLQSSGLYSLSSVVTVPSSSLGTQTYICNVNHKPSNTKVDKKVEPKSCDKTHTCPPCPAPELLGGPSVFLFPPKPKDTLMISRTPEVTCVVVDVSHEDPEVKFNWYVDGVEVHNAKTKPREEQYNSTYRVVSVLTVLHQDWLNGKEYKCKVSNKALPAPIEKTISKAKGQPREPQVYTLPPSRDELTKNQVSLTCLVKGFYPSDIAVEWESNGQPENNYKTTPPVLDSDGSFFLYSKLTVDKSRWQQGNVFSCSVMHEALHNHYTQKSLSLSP
light: B2 light with R24Q
B49: H49/L10 (antibody, human IgG1, kappa)
heavy: not shown
light: B2 light with L109V, K112E

Target: T1, Human recombinant AXL-FND1 (GST-FND1), …
Test: SPR (Biacore T100): antibody captured on Protein A, GST-FND1 as analyte
In short: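 Antibodies (1 μg/mL) were captured for 2 min on a Protein A CM5 chip. GST-FND1 (0.5 and 2.0 μg/mL) in HBS-EP+ was flowed at 30 μL/min with 2 min association and 2 min dissociation at 25° C. ka and kd were fitted from sensorgrams and Kd was calculated from them.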

| Binder | Kd |
| --- | --- |
| B1 | 3.65 nM |
| B2 | 1.96 nM |
| B3 | 2.03 nM |
| B4 | 1.87 nM |
| B5 | 2.08 nM |
| B6 | 1.94 nM |
| B7 | 1.95 nM |
| B8 | 1.67 nM |
| B9 | 2.01 nM |
| B10 | 1.94 nM |
| B11 | 2.2 nM |
| B12 | 2.92 nM |
| B13 | 2.92 nM |
| B14 | 3.43 nM |
| B15 | 3.51 nM |
| B16 | 2.35 nM |
| B17 | 1.87 nM |
| B18 | 1.84 nM |
| B19 | 1.88 nM |
| B20 | 1.8 nM |
| B21 | 1.9 nM |
| B22 | 1.86 nM |
| B23 | 1.9 nM |
| B24 | 2.22 nM |
| B25 | 2.04 nM |

| Binder | Kd |
| --- | --- |
| B26 | 2.3 nM |
| B27 | 1.84 nM |
| B28 | 1.89 nM |
| B29 | 1.89 nM |
| B30 | 1.83 nM |
| B31 | 1.6 nM |
| B32 | 1.52 nM |
| B33 | 1.83 nM |
| B34 | 2.2 nM |
| B35 | 1.68 nM |
| B36 | 2.38 nM |
| B37 | 2.09 nM |
| B38 | 2.09 nM |
| B39 | 2.06 nM |
| B40 | 2 nM |
| B41 | 1.99 nM |
| B42 | 2.07 nM |
| B43 | 1.98 nM |
| B44 | 2.27 nM |
| B45 | 2.07 nM |
| B46 | 2.19 nM |
| B47 | 2.06 nM |
| B48 | 1.91 nM |
| B49 | 2.05 nM |
